Experimental data: article PMC11813153, “Extended receptor repertoire of an adenovirus associated with human obesity” (PLOS Pathogens, 2025)

Key:
[1] = molecular target: HAdV-D36 fiber knob domain (FK) (Human adenovirus type 36 (HAdV-D36), strain 275); experiment: crystal structure; fiber knobs crystallised alone or co-crystallised with 10 mM carbohydrate; HAdV-D36 FK: hanging drop, PEG 3,350, NH4Ac, 0.1 M Bis-Tris pH 5.5, 4 C
[2] = molecular target: the molecule itself; experiment: as above

Row | Molecule | stoichiometry N [1] | stoichiometry N [2]
1 | HAdV-D36 fiber knob domain (FK) (domain or fragment) | 3 | 
2 | HAdV-D37 fiber knob (FK) (domain or fragment, fiber protein of human adenovirus type 37 (HAdV-D37), knob domain; checked against GenBank ABK59080.1 (HAdV-D37 fiber); also called HAdV-D37 FK; HAdV-D37 wt FK; source: construct, expression and purification as described previously [100]) GYLVAWNPKYDTRTLWTTPDTSPNCTIAQDKDSKLTLVLTKCGSQILANVSLIVVAGKYHIINNKTNPKIKSFTIKLLFNKNGVLLDNSNLGKAYWNFRSGNSNVSTAYEKAIGFMPNLVAYPKPSNSKKYARDIVYGTIYLGGKPDQPAVIKTTFNQETGCEYSITFNFSWSKTYENVEFETTSFTFSYIAQE |  | 3
